Drawing on paper PMC10491584, “Structural convergence endows nuclear transport receptor Kap114p with a transcriptional repressor function toward TATA-binding protein” (Nature Communications, 2023), this text covers Kd and Ka for two molecules.

“And” between values parts separate entries of the source, which are not always exact repeats. Equal values may be shown once.

In general, Kd refers to the concentration at which binding is half-saturated. The low end stands for a tighter complex, the high end for a looser complex.

The target of one experiment is T1, Kap114p (Y370A) (S. cerevisiae, UniProt P53067 1-1004, Y370A).
T1 construct: Kap114p, S. cerevisiae, full length with Y370A; also called GST-Kap114p (Y370A); source: E. coli Rosetta, purified (GST resin, MonoQ, Superdex 200)
T1 sequence (looked up): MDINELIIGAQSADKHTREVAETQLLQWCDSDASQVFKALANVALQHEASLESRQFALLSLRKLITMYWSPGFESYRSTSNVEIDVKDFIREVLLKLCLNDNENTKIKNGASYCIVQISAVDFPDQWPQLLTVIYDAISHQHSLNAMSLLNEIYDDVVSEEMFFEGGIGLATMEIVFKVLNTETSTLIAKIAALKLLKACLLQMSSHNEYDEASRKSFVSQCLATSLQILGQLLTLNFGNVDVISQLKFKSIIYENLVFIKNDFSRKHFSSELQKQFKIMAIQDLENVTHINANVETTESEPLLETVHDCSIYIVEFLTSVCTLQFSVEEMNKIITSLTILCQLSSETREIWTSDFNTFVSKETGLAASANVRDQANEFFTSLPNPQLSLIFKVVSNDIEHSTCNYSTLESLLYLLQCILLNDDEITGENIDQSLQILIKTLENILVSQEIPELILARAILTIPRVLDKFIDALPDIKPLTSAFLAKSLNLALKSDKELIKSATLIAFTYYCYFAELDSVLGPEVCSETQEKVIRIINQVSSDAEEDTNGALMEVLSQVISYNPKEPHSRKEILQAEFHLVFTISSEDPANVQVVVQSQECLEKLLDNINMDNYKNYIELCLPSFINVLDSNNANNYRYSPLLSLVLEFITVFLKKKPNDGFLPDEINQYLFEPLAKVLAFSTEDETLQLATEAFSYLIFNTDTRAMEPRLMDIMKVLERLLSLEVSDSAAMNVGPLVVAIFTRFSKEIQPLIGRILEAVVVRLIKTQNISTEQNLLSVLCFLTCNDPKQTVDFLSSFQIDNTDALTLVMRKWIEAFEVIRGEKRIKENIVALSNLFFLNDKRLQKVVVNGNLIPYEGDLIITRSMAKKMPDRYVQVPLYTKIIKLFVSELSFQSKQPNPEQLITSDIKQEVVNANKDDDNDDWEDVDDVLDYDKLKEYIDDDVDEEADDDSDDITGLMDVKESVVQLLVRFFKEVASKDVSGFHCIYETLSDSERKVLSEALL
Briefly: ITC; MicroCal iTC200, 25 °C, 20 mM HEPES pH 7.4, 150 mM NaCl; high concentration: 50 µM wild type or mutant Kap114p in the sample cell, 500 µM wild type or mutant yTBPC in the syringe; triplicate. The note with it: both partners purified. In general terms: Isothermal titration calorimetry measures the heat released or taken up as one component is titrated into another.

The target of another experiment is T2, Kap114pΔY933 (S. cerevisiae, UniProt P53067 1-1004, ΔY933).
T2 construct: Kap114p, S. cerevisiae, full length with residue Y933 deleted; also called Kap114p(DY933); source: E. coli (Rosetta strain), purified (GST resin, MonoQ, Superdex 200)
T2 sequence (looked up): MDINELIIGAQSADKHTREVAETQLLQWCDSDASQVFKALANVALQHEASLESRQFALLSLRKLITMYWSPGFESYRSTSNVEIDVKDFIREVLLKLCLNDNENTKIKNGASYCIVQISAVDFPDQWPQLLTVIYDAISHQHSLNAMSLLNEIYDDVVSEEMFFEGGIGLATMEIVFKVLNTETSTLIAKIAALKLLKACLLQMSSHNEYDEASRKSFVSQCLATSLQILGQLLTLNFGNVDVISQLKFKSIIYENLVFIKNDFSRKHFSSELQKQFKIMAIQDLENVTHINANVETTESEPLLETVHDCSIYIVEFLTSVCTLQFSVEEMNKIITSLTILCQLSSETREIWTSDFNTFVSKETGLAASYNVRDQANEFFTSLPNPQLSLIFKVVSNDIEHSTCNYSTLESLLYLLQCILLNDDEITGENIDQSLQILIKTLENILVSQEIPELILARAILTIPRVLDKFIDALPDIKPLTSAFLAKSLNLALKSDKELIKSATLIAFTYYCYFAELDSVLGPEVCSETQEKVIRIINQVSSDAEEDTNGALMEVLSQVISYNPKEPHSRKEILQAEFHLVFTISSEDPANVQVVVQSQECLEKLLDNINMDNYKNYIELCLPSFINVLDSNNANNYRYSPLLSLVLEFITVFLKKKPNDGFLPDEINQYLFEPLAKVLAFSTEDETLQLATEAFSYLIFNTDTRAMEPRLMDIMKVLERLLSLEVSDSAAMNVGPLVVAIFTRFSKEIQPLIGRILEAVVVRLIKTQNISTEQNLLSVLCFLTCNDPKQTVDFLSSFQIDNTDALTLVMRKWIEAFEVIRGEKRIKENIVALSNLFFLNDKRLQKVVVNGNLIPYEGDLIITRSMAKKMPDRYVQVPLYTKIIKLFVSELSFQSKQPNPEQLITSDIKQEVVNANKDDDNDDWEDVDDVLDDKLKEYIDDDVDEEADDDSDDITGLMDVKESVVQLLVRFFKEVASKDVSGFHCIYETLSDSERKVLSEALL
Put plainly: ITC; Kap114p (wild type or mutant) 50 uM in the sample cell, partner 500 uM in the syringe; 25 °C; 20 mM HEPES pH 7.4, 150 mM NaCl; triplicate. The settings on record: both partners purified.

B1: yTBP^C wild type (core domain of yeast TATA-box binding protein, a.a. 61-240) (domain or fragment, S. cerevisiae, UniProt P13393 61-240, looked up)
chain: SGIVPTLQNIVATVTLGCRLDLKTVALHARNAEYNPKRFAAVIMRIREPKTTALIFASGKMVVTGAKSEDDSKLASRKYARIIQKIGFAAKFTDFKIQNIVGSCDVKFPIRLEGLAFSHGTFSSYEPELFPGLIYRMVKPKIVLLIFVSGKIVLTGAKQREEIYQAFEAIYPVLSEFRKM
notes: modified pET28a, 6xHis tag followed by a PreScission site; also called yTBPC WT; His-yTBP (61-240); source: E. coli Rosetta, purified (Ni-NTA, HiTrap SP, Superdex 75); not shown: His6, N-terminal, cleaved
With B1, in the experiment with Kap114p (Y370A), binding was characterised by a dissociation constant (Kd) of 20 nM.

B2: core domain of yTBP (a.a. 61-240) (domain or fragment, S. cerevisiae, UniProt P13393 61-240, looked up)
chain: B1 chain
notes: 61-240; also called yTBP^C; yTBPc; source: E. coli (Rosetta strain), purified (Ni-NTA, HiTrap SP, Superdex 75); not shown: 6xHis, N-terminal, cleaved
Turning to B2, in the experiment with Kap114pΔY933, the Ka is 1.91e+08 M⁻¹ and 1.5e+08 M⁻¹ and 8.48e+07 M⁻¹; binding was characterised by a dissociation constant (Kd) of 7.7 nM.
